The format of this series is physicochemical. As to the method: The lipophilicity was determined using the shake-flask method (logP) and qualitatively by radio-HPLC relative to ^68Ga-DOTATOC (Notni et al. [2013]; Du et al. [1998]). Radiolabels were prepared following acetone-PP. Analytical radio-HPLC (LiChrospher 100-RP-18EC, 1 mL/min) for lipophilicity studies was based on a gradient using H2O (A) and MeCN (B), each containing 0.1 % TFA. Mobile phase gradient: 0–1.5 min 1 % B, 1.5–10.5 min 99 % B, 11.5 min 99 % B, 12–15 min 1 % B. The HPLC was coupled to a UV (Hitachi L-7400) and a radioactivity (Gamma Raytest) detection system. HPLC grade solvents were used and degassed by sonication for 15–20 min prior to use.

For the molecule `C[C@@H](O)[C@@H]1NC(=O)[C@H](CCCCN)NC(=O)[C@@H](Cc2c[nH]c3ccccc23)NC(=O)[C@H](Cc2ccc(O)cc2)NC(=O)[C@@H](NC(=O)[C@@H](Cc2ccccc2)NC(=O)CN2CCN(CC(=O)O)CCN(CC(=O)O)CCN(CC(=O)O)CC2)CSSC[C@@H](C(=O)N[C@H](CO)[C@@H](C)O)NC1=O` [^68Ga-DOTATOC, metal not drawn], the “radio-HPLC retention time (tR) as measure of lipophilicity” value is given as 10.3 min.

These data come from article PMC5843802, “DATATOC: a novel conjugate for kit-type ^68Ga labelling of TOC at ambient temperature” (EJNMMI Radiopharmacy and Chemistry, 2016).
